Assay results: US20130344125A1, “DRUG DELIVERY DEVICE” (priority 2010, published 2013)
Where no end group is shown, it is not given here.

Assay: Particle size and size distribution of nano-lipobubbles by dynamic light scattering (Zetasizer NanoZS)
Assay type: physicochemical
Conditions: 25° C., deionized water, extruded through 0.22 μm filter
Description: Particle size and size distribution of synthetic peptide ligands, non-targeted nano-lipobubbles and targeted nano-lipobubbles were analyzed by a Zetasizer NanoZS instrument (Malvern Instruments (Pty) Ltd., Worcestershire, UK) at 25° C. Samples were suspended in deionized water, and then extruded through a 0.22 μm pore size polycarbonate membrane filter prior to analysis. Each analysis was performed in triplicate.
The physicochemical properties of the targeted nano-lipobubbles in terms of size distribution and zeta-potential were examined using the standard method of dynamic light scattering measurement (Zetasizer NanoZS, Malvern Instrument). […] The diameter of synthetic peptide ligand (KVLFLS 9 SEQ ID NO: 2)) alone was in the range of 366±41 nm. When 1 mol % of the linear synthetic peptide ligand incorporated or coupled with circular non-targeted nano-lipobubbles to generate targeted nano-lipobubbles, the size distribution increased from 129 nm to 270 nm when it was compared with non-targeted nano-lipobubbles. This confirms the successfully incorporation of the synthetic peptide ligand on the surface of non-targeted nano-lipobubbles. The overall zeta potential or surface charge of the targeted nano-lipobubbles was −29 mV.

## KVLFLS (KVLFLS-NH2) [Synthetic 6 amino acid peptide ligand from human apolipoprotein A-1 targeting the SEC receptor]
  diameter (size distribution): 366±41 nm
